According to a protein production outcome set (Wang et al. 2014):

Experiment: label from the status in PepcDB records

Sequence | protein production
MIIRGIRGARINNEIFNLGLKFQILNADVVATKKHVLHAINQAKTKKPIAKSFWMEILVRASGQRQIHEAIKIIGAKDGNVCLICEDEETFRKIYELIGGEIDDSVLEINEDKERLIREIFKIRGFGNVVERVLEKIALIELKKE | not failed
MLEHFRAGWAKVMNPIADALLRAHVTPDVVTWIGTIGAVLMALICFPQGWLWQGPWLVTLFIFSDSLDGNMARKLGRHSQWGSFLDSTLDRFGDAAIFTGVALYFAGPGNSVLWTAMACAALVFGMATSYVRAKAESLALEAKVGIATRADRLLVSLVAIEITGLARVGAFPHWCVVALPIALCYLTLAGAITVVQRMVAVRRACES | failed
MARRDISGAVDFAYLEGFAAGDFAVVDEVLALFREQAALWAPMLDPTHPGWKDAVHTVKGAARGVGAFNLGEVCERCEAGQESLEGVRTALDAALLDIAAYAHEQALRSLKG | not failed
MPQDVMTANHVSPSNDAAAPSALDLARNQRLSLMDLLSVSEALNAAGQQAAAAELYKTWVAFNDNNPTIHLAYFNYAVMLNQLGDRAGAVQAFRACLKANPEFAPGHINLGRALEDAGLIGHAVEQWSHYAEVTKNVDAETIGHRHMTLQNMGRVLEGAGKLEEAETALLQAFELRPELPEAGQHWASLRQRQCKWPVLAPSNHISPRKMLDAMSSLTLSCYADDPMFQLAKAYRLSKTLIGARPDLSRFPRRSPKQKSGTGQRLRVGYLSSDLRDHAVGFALCEVLELHDKDSLEVFAYYCGNVRGTDSTQERIKAAVHCWRDIHGVDDATAASQIIADEIDILIDVNGYTKDARAKIFAYRPAPVIVSFCGYPGSMGSPFHQYLISDGYMIPPENEIYYSEKVLRIACDQPLDRKRPVAARPSRADVGLPEDAFVYASFNGMQKITENCFARWMTILSETPGSLLWLLTGDDDVNQRLRDLAEKSGVASERLVFAPKAQNPQHIARIGLADLFLDTFPYGAHSTASDAITSGLPVLTMYGKTFAARFCGSIVTAAGVPEMICSSPEDYVARAIGFERDRQSLLEVRESIARQRETSVLRDIPALARRLEELFWQMQGECERGETPVPDLSNLDIYYEAGAEALLENIEFEDEQSYRERYLKKLRQWHDYAPIPYDRRLWQNPDN | failed
DLREVLDFMLKDEVSKLRKLLVKIKTKKIAEVEYENVVKALKLFKDNYEINEYLMDENTKEFLIKRNILFLNPVEEILKPQSYLVWNAIKRVLQNINDF | not failed
MSNACLASSLLSVCFRLSTERSAMSTSRLRPRCLSVLLAALLLWGGLPTASAQPQRAVRADTLYTMTGDPIENGVVLIENETIAAVGPTSEVDVPASAEVHKASVVTPGLIDPRGTVGLSGIYNVPADQDQLDTSEPMQPALRALDAYNPREQLVSFVQQLGFTTVHTGHAPGALISGQTATFSTAGTTVEASLRDSITTVAFTLGPDAQARFESPGTRAKGVAMLRQALHDAQAAMDGGEPEGGDLGQDVLQDVLRGEVPALITAHRAHDIQTALRLQEEFGFDLILDGAAEAYLMTEEIAEADVPVILHPTMARPSGTTQNAAFTTAGVLHDAGVPVAIQTGWEPYVPKTRIALYEAAIAMAHGLPREAALASITREAAEILGLDNVGTVAPGQRADLALFDGDPFEYTTHVCTVLSGGEVVSDECK | failed
MIDWPLAELLPHAGDMILIDQVLAFDEEQIRTRLEVRPGGLFNRPDGSLPAWVGVELMAQSVAAYAGCRARQQGLPVELGFLLGTRKFECNVEHFPLGSTLEIHALRSLEDDNGMGVFECHLSGPGITASARLNVFRPLEHHHHHH | failed
MHVQEWLDTVPAAAVYAVVGLVIGLESLGIPLPGEIILVSAALLSSQHGGIDPLVLGACASAGAVIGDSIGYAIGRKGGRPLLAWLGGKFPRHFGEGHVATAERSFQKWGMWAVFFGRFVALLRIFAGPLAGVLRMPYWKFLIANVLGGIVWAGGTTAVIYYVGVVAEDWLKRFSWLGLVVAVLIGIASMLIVKRRAGKAQQTPEPVAAGE | failed
MSKRILFIVGSFSEGSFNRQLAKKAETIIGDRAQVSYLSYDRVPFFNQDLETSVHPEVAHAREEVQEADAIWIFSPVYNYAIPGPVKNLLDWLSRSLDLSDPTGPSVLQDKIVTVSSVANGASPEEVFEDYRSLLPFIRMHLVDQLTGVPINSEAWSTGILKVSAEKLAELSAQADALLSAVENLEHHHHHH | not failed
MKFEAIAVEKIPLIHEGDNLPSIICEKIGLQDRDIMIIASTIVAKAEGEIFRLEDITPGEEALEIAARTGKDPRFIQAVLSKSREVFVETPFMLVTTLAGHTCVNAGIDESNIENGFLLYPPENPDASALKIGKELEKLSGKKLSIIITDTNGRAFKIGQTGVAIGIYNIKPVKRWIGEKDLFGKVLEITEQAIADELAGAANLLMGEGAGGIPVVIIRGLDYYCEGDTSIKESYRPENMDVIKQGLRCLRNKK | failed
MDKRIVGTNAGKVWCALKEIGEISIPELARRLNLSVESTALAAGWLARENKICIQRKNGLIALSDESAFPFSFG | failed
MFTAYKKFWTNYVNFTGRSSRSDYWWAILCNSLIILPFVFTATSIFYSNLIEFIRGSAISTFSGEESVLSVYSIDVIILFIIIVLFSLAILLPNLAISIRRLRDAGFHWSLIFVPIGAALFSFLGLIPFLRAIVSIIVWFALIFYYILLCQPSKPYQAPVQPIAPQQPQQMAPQGQPVQAQVQPQSQTTPQQPQTPPVQQPQAPTNQQ | failed
MNINIEDLIFSLDIGTRTVIGTVGSIKDKKFSVIAEKHTEHEERAMVDGQIHDINLVARAVNKVKSQIEEELGFELKDVAIAAAGRFLRTTAVRSELNIDEDKEIDKDVIRGLELTAVKKAQDEVNKETEGKLYCVGYSVKNYFLNGYAISNLLSHKGNSIAVDVIATFLPRSIVESLYAVMNKVNLNVKSLTLEPIAAMEAAVPKNLRLLNIALLDVGAGTSDIAISSKDTISAYGMVPFAGDEITEVIAQNYLVDFNTAENIKRSCNVDTEIKYTDVLGIENTIKSEEVIKLIQPTVQKLAEEVANKIIELNGEKSPNAVFIVGGGAHTPMLKDLLAENLKIQPQRLAIKGRESVTDCICTDNSLGSTGVTVLGIALVAIRRFGNDFIDVILNDNIISLFNARVHTVKDVVVQAGVNPKLLIGKNGKNVRFILNGVKRVAFGTVAKNAEIRINGLIANIDSEVKENDKIEIKYAENGIDASPIIKDYVKNLYSLGFFIDDEVVNLEPIFIINGNKVTIDTEISEGDEVETVYPSKLIHYIRYYDSDLNKEYYINNIKLDENYDIKEGDRIYTKPKEEEQEVEIIPLAEEDKEEQEVVSHPKEIEKEDDDVNTIVVVVNGNPIKMSGKEKYKFVDIFDYFKFDLTQVKGNLVLTLNGEKVSFFDELHDKDIIEVKWE | failed
MQTVKYLARNSGFLFLNGIATNILSFFAMLYIARHLGPEDYGIFSFAFAFIYFFSFIPDMGVHQILVREAAKEPGKAGKLIGNGTIIKFFLSFVAIILAFILINLIGFPSSTKNALYIASLGLLISGTGAYGIIYEAKLRMEYSLLFNLVSRVCLLLFVFLAVAINSTLNTFIFASVSATFVHNLLMVLFSKKLVKVSFNPDITLIKQLLREAIPIAIASVFTVVYFKIDVLMLSFLRGDAEVGFYSAAYRLTDALVFLPSAFTTSTFPLMSRYFKESFNSFSFAYARTFKYLFASGLLIAVLVTFASEKIILIFYGPEYQNSVIALQILIWATAITFISVLISSTCVSSGNQQIISKTAILAALLNVSLNLILIPSTGYIGAAVATVLSVLGSMVFGLIWVHKNLLHENPLKGTISPIIGAGVVSLFIILLEPYADIMFLSAVSVPLFAAVLYTTGWIDSDDKTIFLKLFPASRLNSKKF | failed
MSKFYSEQFKRDAVALYENNENLSLAAAAAELRVNRASLHQWKKELGTGKRTRMIEAKAQAEAASDAERIRALEKENAKLREERDILRKAAKYFAEETSWLEHHHHHH | failed
MKKKLLNYLILLACLATVSVSCSGSAQAAVLGDDYPFSWKYGGFGVDPWTMYWRQCTSFAAYRLSNTNGFTLPIGYGNAITWGNIARANGHRVDMNPAVGSIAWFSAGVNGAGHMGHVAWVAEVHGDQVTIEEYNYDAGQGPEKYHKRSFHKSQVSGYIHFKDLESGTQNGNPTNSSIKVGDSVRFTGTFRVTSVSGNTITSQDLAGGTPTKHNIVDPSPVLEVDAQGNPTSDQYLNPGETFTIPGNFKVLAIDPPSDGILVQIGNLKTWVTQSVLEKILEHHHHHH | not failed
MHFCFISSISKIIDRYEIQHADELRALDLEEKIQNYLPHKELLETVQRLAVRHIFLPSSSDKKNVFFLLSTCEYSKLEEPNVDNVSVDSLISLEEQLETALSVSRARKAELMMEYIESLKEKVSALVFIFDKGHILGYDDS | failed
MGSGAGNFLKVLLRNFDVLAGPVVSLVYPLYASVQAIETQSHADDKQWLTYWVLYSLLTLIELTFAKLIEWLPIWSYMKLILTCWLVIPYFSGAAYVYEHFVRPVFVNPRSINIWYVPKKMDIFRKPDDVLTAAEKYIAENGPDAFEKILSRADKSKRYNKHEYESYETMYGEGYQY | failed
MGHQSSWMKQTVIDSVVQSSKVGVFSMFSMDYKAPRKYSHGRNFGVARQQDFAADIVTRRPYAPYDNGMKKGPNKLSRNLVWTSKEYKSPEGNRPRQNAANGSAKPQVIGTGHRVSNQPRKNAVYGPRSSSLSDTRGCGPRLNGSPKKSVCNFWKDGNCKKGEKCQFLHSWSCFPGLAMVAALEGHKNDIKGIALPQGSDKLFSVSGDGTLLIWDCNSGQCVRSINLQAEAGSLISEGPWVFLGLPNAVKAFNVQNSKDVHLEGVVGQVHAMTAANGMLFAGTSSGSILVWKATDSESDPFKYLTSLEGHHSGEVTCFVVGGEVLYSGSVDKTIKVWDLNTLQCRMTLKQHIGTVTSLLCWDKCLISSSLDGTIKLWACSENESLKVVQTRKQELSVHTLCGMHDAEAKPIMFCSYQNGAVGIFDLPSFEERGKMFSTQTICTLTIGPGGLLFSGDKSGNLRVWSLASGTKV | failed
MFIERMTNLAQGLVVAAVHAGSIAEEMEIECGDQILAIDGQEIGDIIDFQYLTAEDEFTLLLEKAGGELWELEIERSYGEELGLEVQAVSSHGLKLCRNNCIFCFVAQMPPGMRASLYDKDDDYRLSLTQGSFITLSNLDEDEFERILKFHFSPLYISVHAWDAEARVRLMKNPRAGDLSSQLKRLAGAGIQIHSQIVLVPGYNDGEVLEQTVRELGNLHPSVQSIAVVPVGLTKHRANLPDLRPFTPEEAWSILAKGEMWQKEYRRKTGRSLVYFSDEFYASAGRDYPSIEIYDDFAQLENGVGMASKFRQEFDYALQSLPPAIPQRKVHLITGVSAAPFFEDLLKKLTPIEGLTVQRHTIINSFFGPTVTVAGLLTAQDIAGQIGNIKGEIFLIPRVMLKADEEVFLDDRSVEWLAEELQGIPLVVENQGRAFLEAVTGLDLEGEDCE | failed
MESPHAADPEGIDPQVVELATTIFALARAGDTASLDAYIRAGVPANLTNDQGDTLVMLAAYYGHADTVECLCRHGADVNRLNDRGQSPLAGAVFKDEDAVVKTLLAHGADPTLGQPSAIDTARMFGKEHYLELFDNA | failed
MAASFAFLRDVRPYKTSWRVQVKVLHSWCQYTNMTGETLKLVLVNSQGVKIHASVKKDLVSKYVNNLPLNEWTFIETFALNHASGQFRPTGHLYKMSFVTGTQVIRCDS | not failed
MSLNSAAQAQSSDPVVIGCPAPLTGIVAADGIEFQRGIQMAADEINAVGGILGRPIELVFADTQSKGVDVVIQSAQRLIDRDNASALIAGYNLENGTALHDVAADAGVIAMHANTVAVHDEMVKSDPDRYWGTFQYDPPETLYGGGFLKFLKDIEDNGEFSRPNNKIAIITGPGIYSVNIANAIRDGAGEYGYDVSLFETVAIPVSDWGPTLAKLRADPPAVIVVTHFYPQDQALFMNQFMTDPTNSLVYLQYGASLAAFRDIAGDNSVGVTYATVLGTLQDEMGDAFAKAYKERYGDLSSTASGCQTYSALYAYSIAAALAGGPGAPYDDVQNKAVADRLRSLIFRGPVGTMRFHADTQSAWSYPTETNDPSLGMPHIFSQIFDKAEDGVLIAPAPYKKAGFKMPPWMKGEGHHHHHH | not failed
